Experimental data taken from patent US20100129315A1.

Target: human MN protein, entire extra-cellular domain with a C-terminal histag, expressed in HKB-11 cells (human), Q16790
Experiment: SPR (BIAcore 3000), IgG captured on anti-human IgG Fc, soluble MN as analyte, 1:1 Langmuir fit
Conditions: remark: other sources report otherwise

Kd: 1 nM
B1: 3a4 full-length human IgG1 antibody (antibody)
chain 1: QVELVESGGGLVQPGGSLRLSCAASGFTFSDYSINWVRQAPGKGLEYVSNISYSGSSTYYADSVKGRFTISRDNSKNTLYLQMNSLRAEDTAVYYCARFKYSGGSDSWGQGTLVTVSS
chain 2: DIELTQPPSVSVAPGQTARISCSGDNLPDFYVHWYQQKPGQAPVLVISEDNKRPSGIPERFSGSNSGNTATLTISGTQAEDEADYYCSTYGYTYSYSVFGGGTKLTVL
